Reference: the DeepSol protein solubility set

Assay: soluble on expression in E. coli; label from the status in PepcDB or PDB records

Soluble on expression in E. coli, not soluble:
MGSDKIHHHHHHMTQNTTLRIGSGSGWWGDRVEPAERSARLGKLDYLCFETMAEATVSAAQVRKRRDPAFGGYDTYLDDRMRAVLPHCIAHGTRIISNQGWIHPLGAARRVAELCKELGLPDVKIAAVTTTDLTSSICELDLTLLESGEHVSTLRETLISAEPYEGVGPIVEALRAGAQIVVTGRVADPSLFLAPMIHHFGWQADDVARLARGSAIGHLLECGAQVTGGYFGDPGYKDVPEPWNLAFPIAEVEADGSAVISKVAGSGGRIDLQTVKEQMFYEVHDPRRYITPDVIVDFSTAVLEQVAPDRVRISGVSGLPRTDTLKVSLGCTEGHIGEDMFFYAGPGCLEKAKLAKRILEERFAMAALRADELRIDFLGVNAVHGAASPEPACEPNEIAVRVAARTRTREEAAKVGREIDSMAVCGLASTGKRVPHQDRTREIIGVWSALVPRALIRSQVQFV, MGSDKIHHHHHHMTQPTLPPPPRTRFTVSDFNRMGGSVGFNYRLPGQEGGGTGIENLCIAEGRVEECEIRPGITLIVSDVHVYHHYESTSVMTPRFSAIVMLQGQARARLDKQDDVRLAAQSGLNALYGDTVAMTGVHPAGQRLRSVNLSVTAPEAADDEYTSEIIWKLMQSSAPRLRRWPVPHHLLLSIEHLLECDWDQPLRNMVREGVGTQLLAHALAALQHAPVTHRGLTQRDRQLLERVRERLHEAPGEDHTLDDLARLACMSPSTLRAKFHAVYHRSVFSWLRERRLEVAREQLARGWSVQQAAHFVGYRHATNFATAFRERYGVAPSQLG, MGSDKIHHHHHHMTRKRAKTHSVKKAPLFVLTSSPNPKRTTSNKSAGIWSYWTRRTAYAMSTHIIPRLQKVIDGEDQGGISKAVNWQGGGGFRYFRLAPTLIVNDKWGNQIINPDYNPEMLAEALAKLEGLPDFSWILELGSGFAFVGRQYRLEVNGDEFFIDLLFYHIRLKCYVVVELKAAAFKPEHAGQLNFYLAAVDAQVKAPDDNPTIGLLLCKTQNRLVAEYALSDIDKPIGIAEYELVRALPEPLVTNLPTVEQLESELSDWQEDGEFFGV, MGSDKIHHHHHHMTRPPDLLADVLDGIDALLVFSPSGSYYDRVDDVEGVDVVVVATENAVGAETFVELPLAFDDVREQIRFGIEGALSEGVVADGDELGCVAPFLSEEVDMVTRTRANAGTQSSVYELFASTRAEPGVIRDVFDVAIELGRKGQKGKPVGALFVVGDAGKVMTKSRPLSYNPFEKSHVHVGDPIVNVMLKEFSRLDGAFVISDSGKIVSSYRYLEPGAEGTDIPKGLGARHMAAGAITRDTNAVAIVLSESDGLVRAFRNGELVLELDPEDN, MGSDKIHHHHHHMTRQCHPLATVVDACAPLRFAPLPDLRLRSFTRSGDQGDAGQWCRADLLAAKNAFAPVYDGFVAATRPGHRLPAATHFLRAVFREPIFLVAAGLYLTGRAPLLDASHLWFPVRADRTLGTPMLTELKVAVTADDRFAGHPETVTFPGSDDVVRAAAHAMVAAFTPVIDALSAHTRVGKRTLWGWVLDTAHFYMLNPARFLGRDAQAAWALANRLADALLEAGAVTRARPRLFPFCDNHPRGTWAVRGTCCFDYKGDPEHGYCTTCPHKCDNERRNELQEWLRNPALAP, MGSDKIHHHHHHMTRRAWTLLDGGMGRELKRIGAPFRQPEWSALALFEAPEYVTQVHRAFIAAGARVITTNSYAVVPFHIGEERFARSGRALAELSGRLARGAADEAGASVQVAGSLPPALGSYRPDLFDPARSQAIHRELICGLTPHVDFWLAETQSSLAEARAVHAALDGDGKPLWLSFTLLDPDTEHAVPLLRSGESVQQAVLLALELGASALLFNCSQPESMGAALRSARQVLKQEARELALGVYANAFPPVREDAQANDTLLDIRADLGPEAYLQWAQQWVEEGADIVGGCCGIGPEHIARLDEHLQACKQGME, MGSDKIHHHHHHMTSDDLLPYGYIDAHHHVWAPDSHGDAIGYGWLRDIGAMKPFGDPTPIQRDYLMAEFLSEAPDAPRASVHVQTDGTLPDPVAETRFVQAQADATDHPVKIVGLADLGAEDLTGTLDRHAESRDFCGVRQIAARLDHRPDLTFAPQDYLADEQWVNGLKILEDRGLTFDLQIYPEQAEAALEALSATPALTVIIDHALCPYDPAKITQWQAAVALMAARDNTFIKLSGWGMYDAEWDLNGGVSVQPLVSHILERFGADRVMWGSNFPVEKLATRYETCRDVHLDMVPEDAHQDVFFNSAAKTYGLTLT, MGSDKIHHHHHHMTSFISVYLKIKYYICIYKGNLLVKSILLESSCVILIKYSAQYPNLSNSMIKMNKTISDVDFDDEQEIKLPLSNRQSIAILLGAGFSAPKGYPIGNDINKKIQNFDDSNIDFSPSGMLAISKDGHKPLFQIEGVRNIHQKYFIFCKRLINEYTKAHSNQFDYEQFYDFIKSDEAKDNRYRLLCQDLINKSDDYDNYLFNVVHIYNQMVLYLLKDKEGKSYYDGEPFKVNCADAYNEFLLYLSQQSKECIINIHTLNHDLLIESFNQTSNINGNISDGFDEYGSEYYGILEHDHRNYNCRLERYTGRYNTPIRLYKLHGSIDYVPFYRRDKNGFMKPEKYVKIKWGIGASNIIKGRKSKYGYDASPFEYHADFLTGTTSKIKRYDETLLFKKLFKKFRNNLSKANSLIIIGYGCKDKGINEMIKDNFDYKNKPSFIIDKYAGASVETFAQKINAKIIKESIERLDKTWFV, MGSDKIHHHHHHMTSVEAFRGLYYPNKIGRLCFLSLEEVMGQNGVKALLRLADLQQYIDAYPPNDLKREFPFEAISKYSVALGTMYGPRGARGLELRAGRVAFSLGLKEFGPLLGMADLALKLMPITMKLKIVLNATAQTFDRFSDQSSHVEEERGRFVYHITRCSNCITRPEPGPVFYIARGILEEATAWVSGGRRFAVEQLSCMGQGNCSSCAFAIGKDPLE, MGSDKIHHHHHHMTSVSPHKKAKALKPTSRRPAKELCSECGLCDTYYIHYVKEACAFINQQIGELEVETHTRSRHLDNPDELYFGVHQDMIAARKQQPIEGAQWTGIVSSIAIEMLNRGLVEGVVCVQNTKEDRFQPMPIIARTPEEILAARVNKPTLSPNLSVLEQIEKSGMKRLLVIGVGCQIQALRAVEKQLGLEKLYVLGTPCVDNVNRAGLQKFLETTSRSPETVVHYEFMQDFRVHFKHEDGSSETVPFFGLKTNKLKDVFAPSCMSCFDYVNSLADLVVGYMGAPFGWQWIVVRNDTGKEMLDLVQDQLDTQPVTSKGNRKEAVQQSIPAYDKGVTLPMWAAKLMGVVIEKIGPKGLEYARFSIDSHFTRNYLYVKRNHPEKLEAHVPEFAKRIVEQYKLPE, MGSDKIHHHHHHMTTDILNISEEQLVDYSKAHNEPSWMTELRKKALKLTETLEMPKPDKTKLRKWDFDSFKQHDVKGDVYQSLSQLPESVREIIDVDHSKNLVIQHNNTIAYTQVDDNASKDGVIVEGLADALMNHSDLVQKYFMKDAVTVDEHRITALHTALVNGGVFVYVPKNVVVEHPVQYVVLHDDENASFYNHVIIVTEESAEVTYVENYLSNASGEGNQLNIISEVIAGANSNITYGSVDYMDKGFTGHIIRRGITEADASINWALGLMNEGSQIIDNTTNLFGDRSTSSLKSVVIGTGEQKINLTSKIVQYGKETDGYILKHGVMKEHASSVFNGIGYIKHGGTKSIANQESRVLMLSEHARGDANPILLIDEDDVQAGHAASVGRVDPDQLYYLMSRGISQREAERLVIHGFLDPVVRELPIEDVKRQLREVIERKVSK, MGSDKIHHHHHHMTTKKFRMEDVGLSKLKVEKNPKDVKQTEWKSVLPNEVYRVARESGTETPHTGGFNDHFEKGRYVCLCCGSELFNSDAKFWAGCGWPAFSESVGQDANIVRIVDRSHGMHRTEVRCKTCDAHLGHVFNDGPKETTGERYCINSVCMAFEKKD, MGSDKIHHHHHHMTTLLRTRRFPPLNALRAFEAAARHLNFRLAADELGVTQGAVAQQVRHLEDVVAVQLFRRLPRGLALTREGLEYFSSVQRALQIISDATDALGERPTVLAVSTTPSFASKWLIPRLADFGRLHPDIEVRVIADERLASFRADGVDIAIRLSKPPFPAGLAAELLAPLDIFAVASPKLLDSGPPIRTPADLSTHALLHDAHDLWPEFIEKLGGKGRADPTKGPRFSQSLLAIDAAVAGQGIALTSEPLVERDIAEGRLRRVFDFSFPMSLGFYVVFPQANAHSEALQAMRRWLFAQYGKA, MGSDKIHHHHHHMTTNKEQYKVHQEPYYQAQGREVQLYEAAYRNRLPVMVKGPTGCGKSRFVEYMAWKLNKPLITVACNEDMTASDLVGRYLLEANGTRWLDGPLTTAARIGAICYLDEVVEARQDTTVVIHPLTDHRRTLPLDKKGELIEAHPDFQLVISYNPGYQSLMKDLKQSTKQRFAAFDFDYPDAALETTILARETGLDETTAGRLVKIGGVARNLKGHGLDEGISTRLLVYAATLMKDGVDAGDACRMALVRPITDDADIRETLDHAIDATFA, MGSDKIHHHHHHMTTQSFIATKEHRRFAEFADAVRRQHTIGICYGHAGIGKTLSAKRYANWHKAENLIEQWGPRDDADYQIYAALARARTVFYTPAVLTSPKQIHAELEHISTRVSICVDQHLEKIGKKTGPHTRTGKHVELLIIDESERLNATALELLRDRYDRDNIALILIGMPGIEKWFSRYAQLYSRVGFAHEYRPLAQEELNFVLERRWHKLGQTLDPEDFTDAQAIAAVARITRGNFRLIDRLFTQIERVMKINELSTITDDVIEAARSTLVIGIS, MGSDKIHHHHHHMTTTIQALEKHLQVRLLNRTTRKISLTPDGAVYYDRTARILADVADIESSFHDAERGPRGQLRIDVPVSIGRLILIPRLRDFHARYPDIDLVIGLNDRPVDLVGEAVDCAIRVGELKDSSLIARRIGTFQCATAASPIYLEKYGEPTSIEDLQKNHKAIHFFSSRTGRNFDWDFVVDDLIKSVSVRGRVSVNDGDAYIDLALQGFGIIQGPRYMLTNHLESGLLKEVLPQWTPAPMPISAVYLQNRHLSLKVKVFVDWVAELFAGCPLLGGTALPFDQKCEFACDKETGHEYTIRTLVEQHNIAEAYTLKT, MGSDKIHHHHHHMTVAKGSIHGIIGENGAGKSTLMSILYGFYQADSGEIKIGGQSTVIKDSQAAISSGIGMVHQHFMLVENFTVLENVMLGAEGGALLAKGTAAARASLKQLETDYGLDVDPDAVVEELPVGRQQRVEILKALYRGADILILDEPTGVLTPAEADHLFKILRVLRDQGKTVILITHKLREIMAITDTVSVMRRGEIVATRKTVETSVEELAELMVGRRVLLRVDKQPAQPRDVLLSVRNLTVKDSRGVIMVDDVSFDVREGEIVGIAGVAGNGQSELLEAITGIRKPMSGEILIAGKLVTGYDPARLRDLGLAHIPEDRHHMGLVLPFEESQNAILGYHRDERYGKGMFLDPKAIRAAAEVEIAKYDIRPPNPRLKTANFSGGNQQKIVVAREIERDPNVLIIGQPTRGVDIGAIEFIHRRIVETRDKGKALLLVSVELDEIRSLSDRILVMFAGKVVGEKTADADEQTLGLMMAGIAA, MGSDKIHHHHHHMTVKSSTSSLHDRSSTSTSLMPGFADPVFDAQAVFRASLLATAYPGRVVPVDRALASPRPFSSATAALCLTLMDFETLAWLDRQAASGEAVAWLRFHCGLPVTDDPMKARFAVVTDALTMPRLVEFHPGDVEYPDRSMTLIIQVPSFNEGPATTWTGPGIKTSARVSIGGLPFWYWSDWEMNRELYPRGIDVIFTNGNALVGLPRTIAVEA
